Measured values: the supplement of paper PMC9116672
± gives the standard deviation of the averaged measurements or the uncertainty stated by the source.

Tests used:
[1] = duplex formation entropy ΔS (Van't Hoff fit of HRM Tm); higher = smaller entropy loss on duplex formation; conditions: temperature for dG: 50 °C, NaCl: 500 mM (unadjusted)
Procedure, shortened: (§1)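 Errors are fit standard deviations, and no salt adjustment was made to the enthalpy, entropy and free energy, which come from a linear Van't Hoff regression of 1/Tm (Tm: peak of -dF/dT) against ln(CT/4). The free energy is extrapolated to 50°C. Samples were phosphodiester or mixed Rp/Sp phosphorothioate DNA strands annealed 1:1 and melted at 1–20 μM, four replicates each, in 1× NNE buffer (500 mM NaCl, pH 7.0) with 1× EvaGreen on a LightCycler96 from 37 to 97°C at 0.1°C/s.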

[2] = duplex formation free energy ΔG50 (Van't Hoff fit of HRM Tm); higher = less stable duplex; conditions: temperature for dG: 50 °C, NaCl: 500 mM (unadjusted)
Procedure, shortened: as §1

[3] = duplex formation enthalpy ΔH (Van't Hoff fit of HRM Tm); higher = less exothermic duplex formation; conditions: temperature for dG: 50 °C, NaCl: 500 mM (unadjusted)
Procedure, shortened: as §1

[4] = duplex melting temperature (HRM, EvaGreen); higher = more stable duplex
Procedure, shortened: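 Complementary DNA strands, either phosphodiester or phosphorothioate (Rp/Sp mixtures), were annealed 1:1 at 25 μM and diluted to 1–20 μM duplex in NNE buffer (500 mM NaCl, pH 7.0) containing 1× EvaGreen. Fluorescence at 470/514 nm was recorded on a LightCycler96 during heating from 37°C to 97°C at 0.1°C/s. The instrument software took the melting temperature as the peak of the negative dF/dT curve. Of four replicates, any without a clear peak were dropped and the remainder averaged.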

[5] = backbone: PO-PO (both strands phosphodiester DNA)
[6] = backbone: PS-PO (listed strand fully phosphorothioate, complement phosphodiester)
[7] = backbone: PS-PS (both strands fully phosphorothioate)
[8] = duplex concentration 1 µM, backbone: PO-PO (both strands phosphodiester DNA)
[9] = duplex concentration 1 µM, backbone: PS-PO (listed strand fully phosphorothioate, complement phosphodiester)
[10] = duplex concentration 1 µM, backbone: PS-PS (both strands fully phosphorothioate)
[11] = duplex concentration 2.5 µM, backbone: PO-PO (both strands phosphodiester DNA)
[12] = duplex concentration 2.5 µM, backbone: PS-PO (listed strand fully phosphorothioate, complement phosphodiester)
[13] = duplex concentration 2.5 µM, backbone: PS-PS (both strands fully phosphorothioate)
[14] = duplex concentration 5 µM, backbone: PO-PO (both strands phosphodiester DNA)
[15] = duplex concentration 5 µM, backbone: PS-PO (listed strand fully phosphorothioate, complement phosphodiester)
[16] = duplex concentration 5 µM, backbone: PS-PS (both strands fully phosphorothioate)
[17] = duplex concentration 7.5 µM, backbone: PO-PO (both strands phosphodiester DNA)
[18] = duplex concentration 7.5 µM, backbone: PS-PO (listed strand fully phosphorothioate, complement phosphodiester)
[19] = duplex concentration 7.5 µM, backbone: PS-PS (both strands fully phosphorothioate)
[20] = duplex concentration 10 µM, backbone: PO-PO (both strands phosphodiester DNA)
[21] = duplex concentration 10 µM, backbone: PS-PO (listed strand fully phosphorothioate, complement phosphodiester)
[22] = duplex concentration 10 µM, backbone: PS-PS (both strands fully phosphorothioate)
[23] = duplex concentration 15 µM, backbone: PO-PO (both strands phosphodiester DNA)
[24] = duplex concentration 15 µM, backbone: PS-PO (listed strand fully phosphorothioate, complement phosphodiester)
[25] = duplex concentration 15 µM, backbone: PS-PS (both strands fully phosphorothioate)
[26] = duplex concentration 20 µM, backbone: PO-PO (both strands phosphodiester DNA)
[27] = duplex concentration 20 µM, backbone: PS-PO (listed strand fully phosphorothioate, complement phosphodiester)
[28] = duplex concentration 20 µM, backbone: PS-PS (both strands fully phosphorothioate)

Sequence | duplex formation entropy ΔS [1, 5] [cal/mol/K] | duplex formation entropy ΔS [1, 6] [cal/mol/K] | duplex formation entropy ΔS [1, 7] [cal/mol/K] | duplex formation free energy ΔG50 [2, 5] [kcal/mol] | duplex formation free energy ΔG50 [2, 6] [kcal/mol] | duplex formation free energy ΔG50 [2, 7] [kcal/mol] | duplex formation enthalpy ΔH [3, 5] [kcal/mol] | duplex formation enthalpy ΔH [3, 6] [kcal/mol] | duplex formation enthalpy ΔH [3, 7] [kcal/mol] | duplex melting temperature [4, 8] [°C] | duplex melting temperature [4, 9] [°C] | duplex melting temperature [4, 10] [°C] | duplex melting temperature [4, 11] [°C] | duplex melting temperature [4, 12] [°C] | duplex melting temperature [4, 13] [°C] | duplex melting temperature [4, 14] [°C] | duplex melting temperature [4, 15] [°C] | duplex melting temperature [4, 16] [°C] | duplex melting temperature [4, 17] [°C] | duplex melting temperature [4, 18] [°C] | duplex melting temperature [4, 19] [°C] | duplex melting temperature [4, 20] [°C] | duplex melting temperature [4, 21] [°C] | duplex melting temperature [4, 22] [°C] | duplex melting temperature [4, 23] [°C] | duplex melting temperature [4, 24] [°C] | duplex melting temperature [4, 25] [°C] | duplex melting temperature [4, 26] [°C] | duplex melting temperature [4, 27] [°C] | duplex melting temperature [4, 28] [°C]
TAATTATACGAGTAGTTTCTGTCCTG | -340 ± 28 | -312 ± 13 | -245 ± 4.8 | -17.6 ± 0.68 | -13.9 ± 0.21 | -10.75 ± 0.039 | -127 ± 9.7 | -115 ± 4.5 | -89.9 ± 1.6 | 71.48 ± 0.47 | 62.1 ± 1.3 | 53.5 ± 0.9 | 72.48 ± 0.47 | 63.7 ± 0.66 | 55.8 ± 0.57 | 73.57 ± 0.43 | 65.23 ± 0.59 | 57.27 ± 0.51 | 74.63 ± 0.29 | 65.94 ± 0.5 | 58.41 ± 0.21 | 75.37 ± 0.084 | 66.63 ± 0.26 | 59.23 ± 0.13 | 76.277 ± 0.049 | 67.43 ± 0.14 | 60.07 ± 0.12 | 77.05 ± 0.094 | 67.855 ± 0.049 | 60.84 ± 0.17
CTTTTGTGCGGGTAGC | -179 ± 11 | -176 ± 7.2 | -156 ± 7.6 | -12.5 ± 0.21 | -11.07 ± 0.095 | -9.593 ± 0.049 | -70.2 ± 3.7 | -67.9 ± 2.4 | -60 ± 2.5 | 63.84 ± 0.57 | 56.1 | 48.71 ± 0.41 | 65.75 ± 0.34 | 59.24 ± 0.32 | 52.48 ± 0.25 | 68.14 ± 0.14 | 61.53 ± 0.35 | 55.08 ± 0.22 | 69.35 ± 0.31 | 62.94 ± 0.29 | 56.37 ± 0.13 | 70.49 ± 0.15 | 63.93 ± 0.083 | 57.22 ± 0.12 | 71.94 ± 0.13 | 65.13 ± 0.068 | 58.45 ± 0.21 | 73.2 ± 0.36 | 65.98 ± 0.35 | 59.6 ± 0.74
TGTAAGACTTCTGCCAGAAA | -339 ± 20 | -231 ± 11 | -196 ± 4.2 | -16.7 ± 0.45 | -12.4 ± 0.17 | -10.11 ± 0.025 | -126 ± 6.9 | -87.2 ± 3.7 | -73.5 ± 1.4 | 69.04 ± 0.47 |  | 51.3 ± 0.66 | 70.48 ± 0.32 | 62.5 ± 0.74 | 54 ± 0.63 | 71.8 ± 0.086 | 64.36 ± 0.58 | 56.14 ± 0.29 | 72.66 ± 0.2 | 65.49 ± 0.58 | 57.54 ± 0.21 | 73.31 ± 0.13 | 66.18 ± 0.34 | 58.2 | 73.99 ± 0.12 | 67.16 ± 0.27 |  |  | 67.83 ± 0.18 | 
GAACCGTTGATGATCTC | -208 ± 4.8 | -210 ± 5 | -189 ± 7.2 | -12.78 ± 0.09 | -10.93 ± 0.053 | -9.101 ± 0.027 | -80.1 ± 1.6 | -78.8 ± 1.7 | -70.3 ± 2.3 | 63.4 | 54.79 ± 0.14 | 46.68 ± 0.22 | 65.33 ± 0.31 | 57.31 ± 0.16 | 49.91 ± 0.24 | 67.16 ± 0.13 | 59.39 ± 0.12 | 51.98 ± 0.084 | 68.29 ± 0.098 | 60.41 ± 0.13 | 53.01 ± 0.082 | 69.2 ± 0.096 | 61.285 ± 0.052 | 53.86 ± 0.097 | 70.38 ± 0.088 | 62.38 ± 0.1 | 54.9 ± 0.045 | 71.31 ± 0.079 | 63.117 ± 0.054 | 55.75 ± 0.06
CAAACTTAGTAATCACGCCCAGCAACCA | -372 ± 24 | -404 ± 22 | -303 ± 10 | -21 ± 0.74 | -19 ± 0.52 | -13.9 ± 0.17 | -141 ± 8.4 | -149 ± 7.5 | -112 ± 3.5 | 78.3 ± 0.4 | 71.41 ± 0.5 | 62.3 ± 0.89 | 79.54 ± 0.39 | 72.56 ± 0.53 | 64.34 ± 0.43 | 80.55 ± 0.61 | 73.83 ± 0.46 | 65.81 ± 0.35 | 81.42 ± 0.21 | 74.22 ± 0.47 | 66.74 ± 0.11 | 82.09 ± 0.11 | 74.81 ± 0.22 | 67.319 ± 0.064 | 82.922 ± 0.079 | 75.66 ± 0.16 | 67.904 ± 0.048 | 83.591 ± 0.062 | 76.275 ± 0.049 | 68.51 ± 0.1
AGGAGTGAATGAAATGG | -179 ± 7 | -208 ± 4.8 | -201 ± 6.7 | -11.71 ± 0.11 | -10.85 ± 0.05 | -8.33 ± 0.02 | -69.7 ± 2.4 | -78 ± 1.6 | -73.4 ± 2.2 | 59.4 | 54.5 | 43.7 ± 0.16 | 62.1 ± 0.68 | 57.08 ± 0.11 | 46.44 ± 0.17 | 64.64 ± 0.23 | 59.096 ± 0.041 | 48.39 ± 0.29 | 65.704 ± 0.056 | 60.13 ± 0.11 | 49.32 ± 0.19 | 66.73 ± 0.088 | 61.02 ± 0.073 | 50.27 ± 0.12 | 68.03 ± 0.15 | 62.13 ± 0.11 | 51.3 ± 0.13 | 69.03 ± 0.084 | 62.93 ± 0.16 | 52.15 ± 0.22
